Holding throughout (experiment): fructose release, DNS method
Holding throughout (settings): 20 mM sodium acetate pH 5.5, 1 mM CaCl2, 28°C, 5-200 mM sucrose

The subject of data set [1] is T1, Gtf2.
T1 construct: signal peptide removed, C-terminal His6 (pET23b), E. coli BL21(DE3); full-length precursor 1479 residues; draft genome BOPR01000001
The format is biochemical, Leuconostoc mesenteroides subsp. mesenteroides. An excerpt:
fructose release, DNS method on Gtf2

Substrate in data set [2]: OC[C@H]1O[C@@](CO)(O[C@H]2O[C@H](CO)[C@@H](O)[C@H](O)[C@H]2O)[C@@H](O)[C@@H]1O
It counts as biochemical, Leuconostoc mesenteroides. An excerpt: fructose release, DNS method on LEUM1747

Substrate in data set [3]: OC[C@H]1O[C@@](CO)(O[C@H]2O[C@H](CO)[C@@H](O)[C@H](O)[C@H]2O)[C@@H](O)[C@@H]1O
It counts as biochemical, Leuconostoc mesenteroides. An excerpt: fructose release, DNS method on LEUM1752
The source holds these as a separate data set.

Take `OC[C@H]1O[C@@](CO)(O[C@H]2O[C@H](CO)[C@@H](O)[C@H](O)[C@H]2O)[C@@H](O)[C@@H]1O` [sucrose]: in data set [1], the Km is 23 mM.

B1: LEUM1747 (Leuconostoc mesenteroides subsp. mesenteroides ATCC 8293) (protein)
chain: TPSVLGDSSVPDVSANNVQSASDNTTDTQQNTTVTEENDKVQSAATNDNVTTAASDTTQSADNNVTEKQSDDHALDNEKVDNKQDEVAQTNVTSKDEESAVASTDTDPAETTTDETQQVSGKYVEKDGSWYYYFDDGKNAKGLSTIDNNIQYFDESGKQVKGQYVTIDNQTYYFDKDSGDELTGLQSIDGNIVAFNDEGQQIFNQYYQSENGTTYYFDDKGHAATGIKNIEGKNYYFDNLGQLKKGFSGVIDGQIMTFDQETGQEVSNTTSEIKEGLTTQNTDYSEHNAAHGTDAEDFENIDGYLTASSWYRPTDILRNGTDWEPSTDTDFRPILSVWWPDKNTQVNYLNYMADLGFISNADSFETGDSQSLLNEASNYVQKSIEMKISAQQSTEWLKDAMAAFIVTQPQWNETSEDMSNDHLQNGALTYVNSPLTPDANSNFRLLNRTPTNQTGEQAYNLDNSKGGFELLLANDVDNSNPVVQAEQLNWLYYLMNFGTITANDADANFDGIRVDAVDNVDADLLQIAADYFKLAYGVDQNDATANQHLSILEDWSHNDPLYVTDQGSNQLTMDDYVHTQLIWSLTKSSDIRGTMQRFVDYYMVDRSNDSTENEAIPNYSFVRAHDSEVQTVIAQIVSDLYPDVENSLAPTTEQLAAAFKVYNEDEKLADKKYTQYNMASAYAMLLTNKDTVPRVYYGDLYTDDGQYMATKSPYYDAINTLLKARVQYVAGGQSMSVDSNDVLTSVRYGKDAMTASDTGTSETRTEGVGVIVSNNAELQLEDGHTVTLHMGAAHKNQAYRALLSTTADGLAYYDTDENAPVAYTDANGDLIFTNESIYGVQNPQVSGYLAVWVPVGAQQDQDARTASDTTTNTSDKVFHSNAALDSQVIYEGFSNFQAFATDSSEYTNVVIAQNADQFKQWGVTSFQLAPQYRSSTDTSFLDSIIQNGYAFTDRYDLGYGTPTKYGTADQLRDAIKALHASGIQAIADWVPDQIYNLPEQELATVTRTNSFGDDDTDSDIDNALYVVQSRGGGQYQEMYGGAFLEELQALYPSLFKVNQISTGVPIDGSVKITEWAAKYFNGSNIQGKGAGYVLKDMGSNKYFKVVSNTEDGDYLPKQLTNDLSETGFTHDDKGIIYYTLSGYRAQNAFIQDDDNNYYYFDKTGHLVTGLQKINNHTYFFLPNGIELVKSFLQNEDGTIVYFDKKGHQVFDQYITDQNGNAYYFDDAGVMLKSGLATIDGHQQYFDQNGVQVKDKFVIGTDGYKYYFEPGSGNLAILRYVQNSKNQWFYFDGNGHAVTGFQTINGKKQYFYNDGHQSKGEFIDADGDTFYTSATDGRLVTGVQKINGITYAFDNTGNLITNQYYQLADGKYMLLDDSGRAKTGFVLQDGVLRYFDQNGEQVKDAIIVDPDTNLSYYFNATQGVAVKNDYFEYQGNWYLTDANYQLIKGFKAVDDSLQHFDEVTGVQTKDSALISAQGKVYQFDNNGNAVSA
notes: signal peptide removed, C-terminal His6 (pET23b), E. coli BL21(DE3)
As to B1, in data set [2], the Km is 2.5 × 10^1 ± 0.2 mM and the kcat/Km was 1400 M⁻¹ s⁻¹.

B2: LEUM1752 (Leuconostoc mesenteroides subsp. mesenteroides ATCC 8293) (protein)
chain: DVSQNNGVVVATAVDQSNLDATTSDKSITTDDKAATTAATSTDDKATTTVATSTDDKDTTTAATSTDDKATTTVATSTDDKATTTAATSTDDKAATTAATSTDDKAATTAATSTDDKAATTADTSTDDKAATTAATSTDDKATTTAATSTDDKTATTVGTSDNNNSATASDKDVSSSAQKSQTIDNNSKTADTTAALEASSKNLKTIDGKTYYYDDDDQVKKNFATVIDGKVLYFDKETGALADTNDYQFLEGLTSENNTYTEHNASVGTSSDSYTNVDGYLTADSWYRPKDILVNGQNWESSKDDDLRPLLMTWWPDKATQVNYLNAMKYLDATETETVYTSDDSQDALNKAAQNIQVKIEEKISQEGQTQWLKDDISKFVDSQSNWNIASESKGTDHLQGGALLYVNSDKTPDANSDYRLLNRTPTNQTGTPLYTTDPTQGGYDFLLANDVDNSNPVVQAEQLNWMYYLLNFGSITNNDADANFDSIRVDAVDNVDADLLQIAADYFKAAYGVDKSDAISNQHVSILEDWSDNDAEYVKDNGDNQLSMDNKLRLSLKYSLTMPAVDQYGNKRSGLEPFLTNSLVDRTNDSTDNTAQPNYSFVRAHDSEVQTVIAEIIKQRIDPDSDGLSPTMDQLTEAFKIYNADQLKTDKEFTQYNIPSTYATILTNKDTVPRVYYGDMYTDDGQYMATKSLYYDAIDTLLKSRIKYVSGGQTMSMKYMQGDSSMAADSYRGILTSVRYGNGAMTATDAGTNETRTQGIAVIESNNPDLKLSSTDQVVVDMGIAHKNQAYRPALLTTKDGIDTYVSDSDVSQSLIRYTNSNGQLIFNSSDIVGTANPQVSGYLAVWVPVGASDTQDARTESSTATTADGQTLHSNAALDSQVIYESFSNFQSTPTTEAEYANVQIANNTDLYKSWGITNFEFPPQYRSSTDSSFLDSIIQNGYAFTDRYDLGFNTPTKYGTVDQLRTAIKALHATGIKAMADWVPDQIYNLTGKEVVAVQRVNNSGIYNQDSVINKTLYASQTVGGGEYQALYGGEFLDEIKKLYPSLFEKNQISTGVPMDASEKIKEWSAKYFNGTNIQGRGAYYVLKDWATNEYFKVSTSSNSSVFLPKQLTNEESNTGFISTDGGMTYYSTSGYQAKDTFIQDDKSNWYYFDKNGYMTYGFQTVNDNNYYFLPNGIELQDAILEDSKGNVYYFNQYGKQAVDGYYMLANKTWRYFDKNGVMANAGLTTVTVDGQEHIQYFDKNGIQVKGTSVKDADGKLRYFDTDSGDMVTNRFGENTDGTWSYFGADGIAVTGAQTISGQKLFFDADGQQIKGKEATDKKGKVHYYDANSGEMITNRFEKLSDGSWAYFNKKGNIVTGAQVINGQHLFFESNGNQVKGREYTATDGKMRYYDADSGDMVTNRFERISDGSWAYFGANGVAVTGEQNINGQQLYFDANGHQVKGAAVTQADGSQKYYDANSGEMIKS
notes: as for B1
In the case of B2, in data set [3], the Km is 1.9 × 10^1 ± 0.1 mM and the kcat/Km is 1300 M⁻¹ s⁻¹.

The values above are taken from paper PMC8550178, “Enzymatically synthesized exopolysaccharide of a probiotic strain Leuconostoc mesenteroides NTM048 shows adjuvant activity to promote IgA antibody responses” (Gut Microbes, 2021).
